Assay results from patent publication US20230051872A1, “Multivalent D-Peptidic Compounds for Target Proteins” (Reflexion Pharmaceuticals, Inc., priority 2019, published 2023).

Legend:
[1] = molecular target: PD-1/PD-L1 complex (Homo sapiens, UniProt Q9NZQ7); conditions: in vitro, reference 31; read-out: IC50, dissociation of PD-1/PD-L1 complex; cited from earlier work
[2] = Subcutaneous immunization, ELISA for antigen-specific serum IgG (anti-drug antibodies); assay type: in vivo, BALB/c mice; conditions: repeated subcutaneous immunization with adjuvant, Days 0, 21, 35; serum to Day 42
Procedure: Adjuvant was purchased from TiterMax. […] All the procedures related to animal handling, care and treatment in the study were performed according to the guidelines set forth in an ACUP protocol for polyclonal antisera production in mice, approved by the Institutional Animal Care and Use Committee (IACUC) of Josman LLC.

[3] = molecular target: Human PD-1-Fc (R&D Systems cat #1086-PD-050), biotinylated (human) (UniProt Q15116); assay: SPR (Table 2)
[4] = molecular target: Human PD-1-Fc (R&D Systems cat #1086-PD-050), biotinylated (human) (UniProt Q15116); assay: SPR, D-peptidic compound on natural L-PD-1 (Example 1)

Human PD-1-Fc (R&D Systems cat #1086-PD-050), biotinylated (human), sequence (Q15116 25-167 limits assumed): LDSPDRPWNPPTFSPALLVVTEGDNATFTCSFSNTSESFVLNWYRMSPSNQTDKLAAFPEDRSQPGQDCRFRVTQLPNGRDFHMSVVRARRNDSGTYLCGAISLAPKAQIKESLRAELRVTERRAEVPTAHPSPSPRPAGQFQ
PD-1/PD-L1 complex, sequence (Q9NZQ7 19-238 limits assumed, one chain of several): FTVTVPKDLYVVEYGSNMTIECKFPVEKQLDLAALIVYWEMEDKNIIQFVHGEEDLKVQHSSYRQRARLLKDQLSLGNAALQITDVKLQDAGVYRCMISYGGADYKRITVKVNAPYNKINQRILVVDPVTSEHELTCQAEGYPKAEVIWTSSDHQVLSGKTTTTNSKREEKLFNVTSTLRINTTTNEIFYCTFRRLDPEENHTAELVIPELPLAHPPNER

For `C[C@@H](O)[C@H](NC(=O)N[C@@H](CC(N)=O)c1nc([C@H](N)CO)no1)C(=O)O` [CA-170], the IC50 [1] is given as 5000 to 10000 µM.

In the case of nivolumab, the “anti-drug antibody response (antigen-specific serum IgG)” value [2] is reported as “strong serum IgG titers”.

B1: RFX-977296 (designed binder)
chain: TIDQWLLKNAKEDAIAELKKAGITSDLYFNWINVAGSVSSVNFHKNYILKAHA
modifications: D-protein
Work on B1 yielded a Kd [3] of 1.51 µM and a Kd [4] of 0.625 µM.

B2: 977978 (designed binder)
chain: TIDQWLLKNAKEDAIAELKKAGITCDLYFNWINVAGSVSSVNFHKNYILKAHA
modifications: not fully specified; D-protein
B2 showed a Kd [3] of 0.114 µM.
